# Source: the supplement of paper PMC10567573
# B1: SCNN1D (parent)
# chain: RRPSPVLRHLELLDEFARENIDSL
# Variants of: B1
# Assay: protein stability index of a GFP-peptide fusion (GPS, HEK-293T) (PSI 1-6); higher = more stable
# Details: c terminus: a fixed tail appended
# 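Further: lentivirally expressed fusions sorted by FACS into six bins by GFP to DsRed ratio, PSI derived from sequencing read proportions per bin multiplied by bin number.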
row,Variant,protein stability index
1,RRPSPVLRHLELLDDFARENIDSL [E15D],3.21
2,RRPSPVLRHLELLDFFARENIDSL [E15F],2.03
3,RRPSPVLRHLELLDYFARENIDSL [E15Y],1.83
4,RRPSPVLRHLELLDPFARENIDSL [E15P],3.02
5,RRPSPVLRHLELLDSFARENIDSL [E15S],3.27
6,RRPSPVLRHLELLDAFARENIDSL [E15A],2.97
7,RRPSPVLRHLELLDRFARENIDSL [E15R],2.72
8,RRPSPVLRHLELLDIFARENIDSL [E15I],2.72
9,RRPSPVLRHLELLDVFARENIDSL [E15V],2.29
10,RRPSPVLRHLELLDGFARENIDSL [E15G],3.34
11,RRPSPVLRHLELLDNFARENIDSL [E15N],3.41
12,RRPSPVLRHLELLDLFARENIDSL [E15L],1.76
13,RRPSPVLRHLELLDKFARENIDSL [E15K],2.82
14,RRPSPVLRHLELLDMFARENIDSL [E15M],2.18
15,RRPSPVLRHLELLDHFARENIDSL [E15H],2.92
16,RRPSPVLRHLELLDCFARENIDSL [E15C],2.94
17,RRPSPVLRHLELLDQFARENIDSL [E15Q],2.95
18,RRPSPVLRHLELLDWFARENIDSL [E15W],2.05
19,RRPSPVLRHLELLDTFARENIDSL [E15T],2.92
20,RRPSPVLRHPELLDEFARENIDSL [L10P],3.56
21,RRPSPVLRHQELLDEFARENIDSL [L10Q],3.84
22,RRPSPVLRHRELLDEFARENIDSL [L10R],4.46
23,RRPSPVLRHVELLDEFARENIDSL [L10V],3.41
24,RRPSPVLRHTELLDEFARENIDSL [L10T],3.59

row,Variant,protein stability index
1,RRPSPVLRHSELLDEFARENIDSL [L10S],4.16
2,RRPSPVLRHEELLDEFARENIDSL [L10E],4.49
3,RRPSPVLRHIELLDEFARENIDSL [L10I],2.1
4,RRPSPVLRHHELLDEFARENIDSL [L10H],3.98
5,RRPSPVLRHCELLDEFARENIDSL [L10C],3.24
6,RRPSPVLRHNELLDEFARENIDSL [L10N],4.23
7,RRPSPVLRHMELLDEFARENIDSL [L10M],2.34
8,RRPSPVLRHYELLDEFARENIDSL [L10Y],3
9,RRPSPVLRHAELLDEFARENIDSL [L10A],3.84
10,RRPSPVLRHKELLDEFARENIDSL [L10K],4.33
11,RRPSPVLRHDELLDEFARENIDSL [L10D],4.42
12,RRPSPVLRHGELLDEFARENIDSL [L10G],3.95
13,RRPSPVLRHFELLDEFARENIDSL [L10F],3.9
14,RRPSPVLRHWELLDEFARENIDSL [L10W],3.23
15,RRPSPVLRHLELLDEFARCNIDSL [E19C],2.66
16,RRPSPVLRHLELLDEFARANIDSL [E19A],3.18
17,RRPSPVLRHLELLDEFKRENIDSL [A17K],3.98
18,RRPSPVLRHLELLDEFFRENIDSL [A17F],2.24
19,RRPSPVLRHLELLDEFNRENIDSL [A17N],4.14
20,RRPSPVLRHLELLDEFCRENIDSL [A17C],3.38
21,RRPSPVLRHLELLDEFDRENIDSL [A17D],4.43
22,RRPSPVLRHLELLDEFVRENIDSL [A17V],2.94
23,RRPSPVLRHLELLDEFQRENIDSL [A17Q],3.16
24,RRPSPVLRHLELLDEFTRENIDSL [A17T],3.62

row,Variant,protein stability index
1,RRPSPVLRHLELLDEFWRENIDSL [A17W],3.03
2,RRPSPVLRHLELLDEFERENIDSL [A17E],4.18
3,RRPSPVLRHLELLDEFYRENIDSL [A17Y],2.9
4,RRPSPVLRHLELLDEFSRENIDSL [A17S],4.37
5,RRPSPVLRHLELLDEFIRENIDSL [A17I],2.46
6,RRPSPVLRHLELLDEFGRENIDSL [A17G],3.72
7,RRPSPVLRHLELLDEFHRENIDSL [A17H],3.74
8,RRPSPVLRHLELLDEFPRENIDSL [A17P],3.48
9,RRPSPVLRHLELLDEFMRENIDSL [A17M],2.92
10,RRPSPVLRHLELLDEFRRENIDSL [A17R],2.94
11,RRPSPVLRHLELLDEFLRENIDSL [A17L],3.07
12,RRPSPVLRHLELLAEFARENIDSL [D14A],1.67
13,RRPSPVLRHLELLHEFARENIDSL [D14H],2.5
14,RRPSPVLRHLELLKEFARENIDSL [D14K],1.8
15,RRPSPVLRHLELLVEFARENIDSL [D14V],1.37
16,RRPSPVLRHLELLREFARENIDSL [D14R],2.27
17,RRPSPVLRHLELLGEFARENIDSL [D14G],2.83
18,RRPSPVLRHLELLSEFARENIDSL [D14S],2.16
19,RRPSPVLRHLELLTEFARENIDSL [D14T],2.21
20,RRPSPVLRHLELLIEFARENIDSL [D14I],1.78
21,RRPSPVLRHLELLMEFARENIDSL [D14M],2.6
22,RRPSPVLRHLELLNEFARENIDSL [D14N],2.74
23,RRPSPVLRHLELLFEFARENIDSL [D14F],1.42
24,RRPSPVLRHLELLQEFARENIDSL [D14Q],2.94

row,Variant,protein stability index
1,RRPSPVLRHLELLEEFARENIDSL [D14E],2.56
2,RRPSPVLRHLELLWEFARENIDSL [D14W],1.44
3,RRPSPVLRHLELLPEFARENIDSL [D14P],2.92
4,RRPSPVLRHLELLLEFARENIDSL [D14L],2.86
5,RRPSPVLRHLELLCEFARENIDSL [D14C],1.59
6,RRPSPVLRHLELLYEFARENIDSL [D14Y],2
7,RRPSPVLRHLGLLDEFARENIDSL [E11G],4.33
8,RRPSPVLRHLLLLDEFARENIDSL [E11L],1.41
9,RRPSPVLRHLRLLDEFARENIDSL [E11R],2.96
10,RRPSPVLRHLCLLDEFARENIDSL [E11C],2.01
11,RRPSPVLRHLDLLDEFARENIDSL [E11D],3.55
12,RRPSPVLRHLKLLDEFARENIDSL [E11K],2.83
13,RRPSPVLRHLMLLDEFARENIDSL [E11M],2.14
14,RRPSPVLRHLILLDEFARENIDSL [E11I],1.9
15,RRPSPVLRHLALLDEFARENIDSL [E11A],3.1
16,RRPSPVLRHLYLLDEFARENIDSL [E11Y],2.25
17,RRPSPVLRHLFLLDEFARENIDSL [E11F],1.89
18,RRPSPVLRHLHLLDEFARENIDSL [E11H],3.18
19,RRPSPVLRHLPLLDEFARENIDSL [E11P],3.75
20,RRPSPVLRHLWLLDEFARENIDSL [E11W],2.49
21,RRPSPVLRHLSLLDEFARENIDSL [E11S],3.25
22,RRPSPVLRHLVLLDEFARENIDSL [E11V],2.56
